First the molecules themselves.
B1: KB001 mouse Fab FASEBA VH D58G (Fab, V domains shown)
VH: EVQLKQSGPGLVAPSQSLSITCTVSGFSLSIYSVHWVRQPPGKGLEWLGMIWGGGSSGYNSALKSRLSISKDNSKSQVFLKMNSLQTDDTAMYYCARNGNFYAMDYWGQGTSVTVSS
VL: QIVLTQSPAIMSASLGERVTMTCTASSSVSSSFLHWYQQKPGSSPQLWIYSTSNLASGVPARFSGSGSGTSYSLTISSMEAEDAATYYCHQYHHSPYIYTFGGGTKLEIK
B2: KB001 mouse Fab FASEBA VH S61M (Fab, V domains shown)
VH: B1 VH with G58D, S61M
VL: B1 VL
B3: KB001 mouse Fab FASEBA VH Y59K (Fab, V domains shown)
VH: B1 VH with G58D, Y59K
VL: B1 VL
B4: KB001 mouse Fab FASEBA VH A62H (Fab, V domains shown)
VH: B1 VH with G58D, A62H
VL: B1 VL
B5: KB001 mouse Fab FASEBA VH S61H (Fab, V domains shown)
VH: B1 VH with G58D, S61H
VL: B1 VL
B6: KB001 mouse Fab FASEBA VH S61W (Fab, V domains shown)
VH: B1 VH with G58D, S61W
VL: B1 VL
B7: KB001 mouse Fab FASEBA VH S61K (Fab, V domains shown)
VH: B1 VH with G58D, S61K
VL: B1 VL
B8: KB001 mouse Fab FASEBA VH L63F (Fab, V domains shown)
VH: B1 VH with G58D, L63F
VL: B1 VL
B9: KB001 mouse Fab FASEBA VH S61Y (Fab, V domains shown)
VH: B1 VH with G58D, S61Y
VL: B1 VL
B10: KB001 mouse Fab FASEBA VH Y59T (Fab, V domains shown)
VH: B1 VH with G58D, Y59T
VL: B1 VL
B11: KB001 mouse Fab FASEBA VH N60Q (Fab, V domains shown)
VH: B1 VH with G58D, N60Q
VL: B1 VL
B12: KB001 mouse Fab FASEBA VH S61R (Fab, V domains shown)
VH: B1 VH with G58D, S61R
VL: B1 VL
B13: KB001 mouse Fab FASEBA VH N60P (Fab, V domains shown)
VH: B1 VH with G58D, N60P
VL: B1 VL
B14: KB001 mouse Fab FASEBA VH A62R (Fab, V domains shown)
VH: B1 VH with G58D, A62R
VL: B1 VL
B15: KB001 mouse Fab FASEBA VH A62G (Fab, V domains shown)
VH: B1 VH with G58D, A62G
VL: B1 VL
B16: KB001 mouse Fab FASEBA VH S61F (Fab, V domains shown)
VH: B1 VH with G58D, S61F
VL: B1 VL
B17: KB001 mouse Fab FASEBA VH Y59M/S571 (Fab, V domains shown)
VH: B1 VH with S57I, G58D, Y59M
VL: B1 VL
B18: KB001 mouse Fab FASEBA VH N60S (Fab, V domains shown)
VH: B1 VH with G58D, N60S
VL: B1 VL
B19: KB001 mouse Fab FASEBA VH L63V (Fab, V domains shown)
VH: B1 VH with G58D, L63V
VL: B1 VL
B20: KB001 mouse Fab FASEBA VH A62Q (Fab, V domains shown)
VH: B1 VH with G58D, A62Q
VL: B1 VL
B21: KB001 mouse Fab FASEBA VH A62L (Fab, V domains shown)
VH: B1 VH with G58D, A62L
VL: B1 VL
B22: KB001 mouse Fab FASEBA VH A62F (Fab, V domains shown)
VH: B1 VH with G58D, A62F
VL: B1 VL
B23: KB001 mouse Fab FASEBA VH A62E (Fab, V domains shown)
VH: B1 VH with G58D, A62E
VL: B1 VL
B24: KB001 mouse Fab FASEBA VH S61G (Fab, V domains shown)
VH: B1 VH with G58D, S61G
VL: B1 VL
B25: KB001 mouse Fab FASEBA VH A62N (Fab, V domains shown)
VH: B1 VH with G58D, A62N
VL: B1 VL
B26: KB001 mouse Fab FASEBA VH A62V (Fab, V domains shown)
VH: B1 VH with G58D, A62V
VL: B1 VL
B27: KB001 mouse Fab FASEBA VH L63H (Fab, V domains shown)
VH: B1 VH with G58D, L63H
VL: B1 VL
B28: KB001 mouse Fab FASEBA VH A62D (Fab, V domains shown)
VH: B1 VH with G58D, A62D
VL: B1 VL
B29: KB001 mouse Fab FASEBA VH A62I (Fab, V domains shown)
VH: B1 VH with G58D, A62I
VL: B1 VL
B30: KB001 mouse Fab FASEBA VH L63M (Fab, V domains shown)
VH: B1 VH with G58D, L63M
VL: B1 VL
B31: KB001 mouse Fab FASEBA VH A62M (Fab, V domains shown)
VH: B1 VH with G58D, A62M
VL: B1 VL
B32: KB001 mouse Fab FASEBA VH S61L (Fab, V domains shown)
VH: B1 VH with G58D, S61L
VL: B1 VL
B33: KB001 mouse Fab FASEBA VH L63Y (Fab, V domains shown)
VH: B1 VH with G58D, L63Y
VL: B1 VL
B34: KB001 mouse Fab FASEBA VH S61C (Fab, V domains shown)
VH: B1 VH with G58D, S61C
VL: B1 VL
B35: KB001 mouse Fab FASEBA VH N60T (Fab, V domains shown)
VH: B1 VH with G58D, N60T
VL: B1 VL
B36: KB001 mouse Fab FASEBA VH Y59R (Fab, V domains shown)
VH: B1 VH with G58D, Y59R
VL: B1 VL
B37: KB001 mouse Fab FASEBA VH Y59F (Fab, V domains shown)
VH: B1 VH with G58D, Y59F
VL: B1 VL

Drawing on US20230365662A1, this text covers OD450nm and Ratio OD(Variant)/OD(WT) for 37 molecules.

Substitutions are numbered along the chain they refer to. Numbers in names are those of the source. Where “and” joins values, the source holds several entries; their conditions need not be identical. Equal entries are not always repeated.

The target of the assay is HRgpA-6H (Porphyromonas gingivalis) (UniProt P28784). Briefly: ELISA on coated HRgpA-6H. A general note: An ELISA detects its analyte on a solid surface through an enzyme-linked reagent.
Chain of UniProt P28784 (P28784 228-991 limits assumed): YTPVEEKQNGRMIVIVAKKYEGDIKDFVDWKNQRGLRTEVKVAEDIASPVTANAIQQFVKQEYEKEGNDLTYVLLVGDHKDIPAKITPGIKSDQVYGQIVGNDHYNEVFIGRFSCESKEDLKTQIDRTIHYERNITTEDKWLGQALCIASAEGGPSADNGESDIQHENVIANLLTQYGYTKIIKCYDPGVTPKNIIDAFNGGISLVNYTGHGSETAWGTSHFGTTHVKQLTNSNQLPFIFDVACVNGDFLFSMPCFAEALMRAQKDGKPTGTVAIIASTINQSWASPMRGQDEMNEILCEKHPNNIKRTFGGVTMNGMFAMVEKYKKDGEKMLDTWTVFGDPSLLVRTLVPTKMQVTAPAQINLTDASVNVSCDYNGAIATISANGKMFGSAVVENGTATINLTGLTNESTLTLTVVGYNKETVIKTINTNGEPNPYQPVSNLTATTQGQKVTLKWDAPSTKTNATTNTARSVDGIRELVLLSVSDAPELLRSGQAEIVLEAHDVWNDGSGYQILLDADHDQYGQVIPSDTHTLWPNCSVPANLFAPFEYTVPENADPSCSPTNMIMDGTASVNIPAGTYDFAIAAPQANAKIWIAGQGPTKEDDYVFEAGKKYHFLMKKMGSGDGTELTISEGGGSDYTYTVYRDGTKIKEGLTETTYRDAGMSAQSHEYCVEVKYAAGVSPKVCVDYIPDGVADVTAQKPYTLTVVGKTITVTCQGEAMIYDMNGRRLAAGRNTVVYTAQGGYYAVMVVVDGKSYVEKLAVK
As to B1, the OD450nm came out at 0.778 and the Ratio OD(Variant)/OD(WT) was 0.984.
With B2, the OD450nm was 0.493 and 0.479; the Ratio OD(Variant)/OD(WT) is 0.999 and 0.971.
Take B3: the OD450nm was 0.648 and the Ratio OD(Variant)/OD(WT) was 0.819.
As for B4, the OD450nm is 0.819 and 0.834 and 0.844; the Ratio OD(Variant)/OD(WT) was 0.937 and 0.954 and 0.966.
As for B5, the OD450nm worked out at 0.469 and the Ratio OD(Variant)/OD(WT) turned out to be 0.95.
In the case of B6, the OD450nm was 0.435 and 0.429; the Ratio OD(Variant)/OD(WT) was 0.881 and 0.869.
As for B7, the OD450nm was 0.49 and the Ratio OD(Variant)/OD(WT) came to 0.993.
As for B8, the OD450nm was 0.743 and the Ratio OD(Variant)/OD(WT) came out at 0.85.
Take B9: the OD450nm came out at 0.423 and the Ratio OD(Variant)/OD(WT) is 0.857.
Turning to B10, the OD450nm stood at 0.744 and the Ratio OD(Variant)/OD(WT) amounted to 0.941.
On to B11, for which the OD450nm is 0.447 and 0.402; the Ratio OD(Variant)/OD(WT) was 0.906 and 0.815.
With B12, the OD450nm is 0.438 and the Ratio OD(Variant)/OD(WT) was 0.888.
In the case of B13, the OD450nm is 0.44 and 0.428; the Ratio OD(Variant)/OD(WT) was 0.892 and 0.867.
With B14, the OD450nm is 0.733 and 0.847 and 0.809; the Ratio OD(Variant)/OD(WT) is 0.839 and 0.969 and 0.926.
In the case of B15, the OD450nm was 0.813 and 0.785; the Ratio OD(Variant)/OD(WT) was 0.93 and 0.898.
For the molecule B16, the OD450nm was 0.432 and 0.473; the Ratio OD(Variant)/OD(WT) is 0.875 and 0.958.
As to B17, the OD450nm was determined as 0.701 and the Ratio OD(Variant)/OD(WT) turned out to be 0.886.
B18: the OD450nm stood at 0.452 and the Ratio OD(Variant)/OD(WT) amounted to 0.916.
For B19, the OD450nm was 0.784 and 0.77 and 0.778; the Ratio OD(Variant)/OD(WT) was 0.897 and 0.881 and 0.89.
With B20, the OD450nm was 0.737 and 0.869; the Ratio OD(Variant)/OD(WT) is 0.843 and 0.994.
Consider B21, for which the OD450nm stood at 0.812 and the Ratio OD(Variant)/OD(WT) was 0.929.
Take B22: the OD450nm is 0.843 and 0.733; the Ratio OD(Variant)/OD(WT) is 0.965 and 0.839.
On to B23, for which the OD450nm was 0.854 and the Ratio OD(Variant)/OD(WT) is 0.977.
On to B24, for which the OD450nm was 0.46 and 0.476; the Ratio OD(Variant)/OD(WT) was 0.932 and 0.965.
With B25, the OD450nm is 0.721 and 0.799; the Ratio OD(Variant)/OD(WT) is 0.825 and 0.914.
On to B26, for which the OD450nm is 0.742 and 0.757; the Ratio OD(Variant)/OD(WT) was 0.849 and 0.866.
Consider B27, for which the OD450nm is 0.818 and 0.843 and 0.822; the Ratio OD(Variant)/OD(WT) was 0.936 and 0.965 and 0.941.
As to B28, the OD450nm is 0.853 and 0.851; the Ratio OD(Variant)/OD(WT) was 0.976 and 0.974.
For B29, the OD450nm is 0.702 and 0.808; the Ratio OD(Variant)/OD(WT) is 0.803 and 0.924.
As for B30, the OD450nm is 0.8 and the Ratio OD(Variant)/OD(WT) came to 0.915.
Take B31: the OD450nm is 0.77 and 0.735; the Ratio OD(Variant)/OD(WT) was 0.881 and 0.841.
Turning to B32, the OD450nm is 0.448 and the Ratio OD(Variant)/OD(WT) was 0.908.
With B33, the OD450nm is 0.836 and 0.846 and 0.801; the Ratio OD(Variant)/OD(WT) is 0.957 and 0.968 and 0.916.
Consider B34, for which the OD450nm was 0.431 and the Ratio OD(Variant)/OD(WT) was 0.873.
The like results for B35 were, in that order, 0.406 and 0.823.
As for B36, the OD450nm turned out to be 0.633 and the Ratio OD(Variant)/OD(WT) worked out at 0.8.
On to B37, for which the OD450nm came out at 0.668 and the Ratio OD(Variant)/OD(WT) amounted to 0.845.
